Target: full-length GALLS (GALLS-FL) fused in frame with LexA in yeast bait vector pEG202 (pE3462)
Assay: cell-based or functional assay

Question: How did the β-galactosidase units (β-galactosidase units) turn out when “LSH10 (GIP, GALLS Interacting Protein; At2g42610) expressed from the yeast two-hybrid prey vector pGAD424 (from UniProt Q9S7R3 1-177)” was run?
Answer: 6

Source: patent US10526611
